# In article PMC11615322 (Nature Communications, 2024):
# B1: His-SRX (natural protein)
# chain: not shown
# Biological target: GST-Keap1 (human, UniProt Q14145 1-624)
# Test: pull-down
# GST-Keap1, sequence (Q14145 whole entry): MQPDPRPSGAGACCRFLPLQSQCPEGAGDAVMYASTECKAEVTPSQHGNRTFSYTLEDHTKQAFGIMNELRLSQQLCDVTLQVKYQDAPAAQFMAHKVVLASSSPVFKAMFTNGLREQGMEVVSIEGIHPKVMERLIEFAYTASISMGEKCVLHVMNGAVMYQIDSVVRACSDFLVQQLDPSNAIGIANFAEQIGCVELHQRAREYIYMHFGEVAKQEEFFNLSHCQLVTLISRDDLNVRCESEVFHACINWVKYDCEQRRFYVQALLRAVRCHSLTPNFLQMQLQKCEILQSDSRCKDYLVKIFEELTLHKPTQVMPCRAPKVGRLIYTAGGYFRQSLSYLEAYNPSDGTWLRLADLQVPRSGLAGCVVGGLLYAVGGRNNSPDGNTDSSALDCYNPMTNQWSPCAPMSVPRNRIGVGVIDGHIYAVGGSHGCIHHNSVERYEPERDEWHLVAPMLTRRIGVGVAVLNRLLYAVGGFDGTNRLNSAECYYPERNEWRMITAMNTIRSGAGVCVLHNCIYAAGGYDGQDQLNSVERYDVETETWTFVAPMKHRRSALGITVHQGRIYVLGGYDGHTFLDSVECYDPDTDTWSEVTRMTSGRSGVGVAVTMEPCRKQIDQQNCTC
binder,measurement,value
B1,binding result,binds
